From PMC6643271 (Biochemistry, 2018)

Legend:
Details in all cases: 10 mM ATP, 14 mM MgCl2, 100 mM KCl, pH 8.0, 25 °C
[1] = molecular target: Cj1418 (L-glutamine kinase) (Campylobacter jejuni, UniProt Q0P8J6)
NNC(=O)CC[C@H](N)C(=O)O = assay: purified protein
NC(=O)CC[C@@H](N)C(=O)O = assay: purified protein
N[C@@H](CCC(=O)NO)C(=O)O = assay: purified protein

Chain of Cj1418 (L-glutamine kinase) (Q0P8J6 whole entry): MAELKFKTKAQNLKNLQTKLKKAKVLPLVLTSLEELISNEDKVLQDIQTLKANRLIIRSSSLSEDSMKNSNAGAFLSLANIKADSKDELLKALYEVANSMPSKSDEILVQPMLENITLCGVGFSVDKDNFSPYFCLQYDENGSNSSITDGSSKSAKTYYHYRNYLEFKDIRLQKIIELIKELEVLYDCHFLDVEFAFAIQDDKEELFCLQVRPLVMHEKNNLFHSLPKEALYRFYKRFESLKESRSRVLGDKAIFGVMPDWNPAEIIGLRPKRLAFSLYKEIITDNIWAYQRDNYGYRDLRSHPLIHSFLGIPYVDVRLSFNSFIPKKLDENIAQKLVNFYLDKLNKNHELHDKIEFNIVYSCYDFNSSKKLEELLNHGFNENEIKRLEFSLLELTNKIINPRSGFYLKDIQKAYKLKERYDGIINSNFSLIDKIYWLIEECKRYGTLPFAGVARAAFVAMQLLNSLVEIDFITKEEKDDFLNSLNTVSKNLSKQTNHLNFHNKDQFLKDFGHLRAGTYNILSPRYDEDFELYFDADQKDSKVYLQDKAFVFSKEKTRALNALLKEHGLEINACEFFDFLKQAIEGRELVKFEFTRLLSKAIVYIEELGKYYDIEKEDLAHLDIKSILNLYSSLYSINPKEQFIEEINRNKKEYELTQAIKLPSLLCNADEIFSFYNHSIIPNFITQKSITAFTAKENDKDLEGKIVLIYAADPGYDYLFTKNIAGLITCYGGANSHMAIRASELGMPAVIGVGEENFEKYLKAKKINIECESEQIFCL

Row | Molecule | Km [1] | Km (NNC(=O)CC[C@H](N)C(=O)O) | kcat (NNC(=O)CC[C@H](N)C(=O)O) | kcat/Km (NNC(=O)CC[C@H](N)C(=O)O) | Km (NC(=O)CC[C@@H](N)C(=O)O) | kcat (NC(=O)CC[C@@H](N)C(=O)O) | kcat/Km (NC(=O)CC[C@@H](N)C(=O)O) | Km (N[C@@H](CCC(=O)NO)C(=O)O) | kcat (N[C@@H](CCC(=O)NO)C(=O)O) | kcat/Km (N[C@@H](CCC(=O)NO)C(=O)O)
1 | NC(=O)CC[C@H](N)C(=O)O [compound 1, L-glutamine] | 640 ± 60 µM | – | – | – | – | – | – | – | – | –
2 | Cj1418 (L-glutamine kinase) (Campylobacter jejuni subsp. jejuni NCTC 11168 = ATCC 700819) | – | 17200 ± 3800 µM | 0.41 ± 0.05 s⁻¹ | 24 ± 6 M⁻¹ s⁻¹ | 10500 ± 1800 µM | 1.5 ± 0.1 s⁻¹ | 140 ± 30 M⁻¹ s⁻¹ | 1500 ± 400 µM | 2.1 ± 0.2 s⁻¹ | 1400 ± 360 M⁻¹ s⁻¹
